Results reported in paper PMC10776578, “Epstein-Barr virus-driven B cell lymphoma mediated by a direct LMP1-TRAF6 complex” (Nature Communications, 2024).

T1: His-TRAF6_(310-522) (human, UniProt Q9Y4K3 310-522)
T1 construct: also called His-T6; recombinant TRAF6 wild-type; source: E. coli BL21 Codon Plus RIPL, purified (Ni-NTA)
T1 sequence: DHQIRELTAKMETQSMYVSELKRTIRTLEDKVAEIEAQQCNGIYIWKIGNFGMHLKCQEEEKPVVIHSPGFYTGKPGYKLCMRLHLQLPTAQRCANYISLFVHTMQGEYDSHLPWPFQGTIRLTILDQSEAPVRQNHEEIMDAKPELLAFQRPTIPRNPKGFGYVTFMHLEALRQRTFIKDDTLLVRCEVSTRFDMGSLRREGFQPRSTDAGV


system: HA-LMP1; assay: Confocal immunofluorescence colocalization of Flag-TRAF6 with HA-LMP1 in HeLa cells; type: cell-based, Epstein-Barr virus; settings: mean of ten cells
Procedure: HeLa cells were seeded onto cover glasses (Thermo Scientific, Menzel) in 24-well plates one day before transfection. Cells were transfected at 50–60% confluency with 50 ng of pCMV-HA-LMP1 plasmids and 100 ng of pRK5-Flag-TRAF6 plasmids, adjusted to a total of 500 ng DNA per sample with pRK5 empty vector, using Lipofectamine 2000 (Thermo Fisher Scientific) according to the manufacturer’s instructions. At 24 h posttransfection, cells were washed once with PBS and fixed with 4% paraformaldehyde (Sigma-Aldrich) for 20 min at RT, followed by permeabilization with 0.3% (v/v) Triton X-100 and blocking with 5% (v/v) FBS in PBS for 1 h at RT. For immunostaining, the cells were incubated overnight with the primary antibodies α-HA (1:1000, clone 16B12, BioLegend) and α-DYKDDDDK (1:1000, clone L5, BioLegend) at 4 °C. The secondary antibodies goat α-mouse Alexa 488 (1:500, cross-adsorbed, Invitrogen, #A-11029) and goat α-rat Alexa 555 (1:500, cross-adsorbed, Invitrogen, #A-21434) were added for 1.5 h at RT. Microscope slides were sealed with cover glasses using Mowiol mounting medium (Sigma-Aldrich). Nuclei were stained with Hoechst 33258 (Sigma-Aldrich). All samples were imaged using a Leica TCS SP5 confocal microscope with 405 nm, 488 nm, 543 nm or 633 nm laser lines, scanning each channel separately under image capture conditions that eliminated channel overlap. For each single experiment, 10 transfected cells positive for both constructs were randomly captured as single-cell images for quantification. The resulting images were then analyzed using the Leica TCS SP5 colocalization analyses application (LAS AF Version 2.7.3.9723). Analysis was performed with default parameters.

Molecule	colocalization of TRAF6 with LMP1, mean
371-T6wt: TRAF6 wild-type coexpressed with LMP1Δ371-386 (protein, UniProt Q9Y4K3 1-522, looked up) TNF receptor-associated …: MSLLNCENSCGSSQSESDCCVAMASSCSAVTKDDSVGGTASTGNLSSSFMEEIQGYDVEFDPPLESKYECPICLMALREAVQTPCGHRFCKACIIKSIRDAGHKCPVDNEILLENQLFPDNFAKREILSLMVKCPNEGCLHKMELRHLEDHQAHCEFALMDCPQCQRPFQKFHINIHILKDCPRRQVSCDNCAASMAFEDKEIHDQNCPLANVICEYCNTILIREQMPNHYDLDCPTAPIPCTFSTFGCHEKMQRNHLARHLQENTQSHMRMLAQAVHSLSVIPDSGYISEVRNFQETIHQLEGRLVRQDHQIRELTAKMETQSMYVSELKRTIRTLEDKVAEIEAQQCNGIYIWKIGNFGMHLKCQEEEKPVVIHSPGFYTGKPGYKLCMRLHLQLPTAQRCANYISLFVHTMQGEYDSHLPWPFQGTIRLTILDQSEAPVRQNHEEIMDAKPELLAFQRPTIPRNPKGFGYVTFMHLEALRQRTFIKDDTLLVRCEVSTRFDMGSLRREGFQPRSTDAGV	32.37

biological target: T1, His-TRAF6_(310-522); assay: AlphaScreen or HTRF; AlphaScreen PPI assay: His-TRAF and GST-LMP1, GST-CD40 or GST-RANK in PBS with 0.5% BSA and 0.1% Tween-20, 1 h at RT; standard 300 nM His-TRAF and 100 nM GST protein if not indicated otherwise; for KD His-TRAF6 at different concentrations, fit one site-specific binding with hill slope; settings: both partners purified

Molecule	binding result	Kd [nM]
GST-LMP1_(181-386) A204xAxA (domain or fragment, also called A204xAxA mutant; CTAR1 mutant; source: E. coli DH5α or BL21 Codon Plus RIPL, purified (glutathione Sepharose 4B)) LIWMYYHGQRHSDEHHHDDSLPHAQAAADDSGHESDSNSNEGRHHLLVSGAGDGPPLCSQNLGAPGGGPDNGPQDPDNTDDNGPQDPDNTDDNGPHDPLPQDPDNTDDNGPQDPDNTDDNGPHDPLPHSPSDSAGNDGGPPQLTEEVENKGGDQGPPLMTDGGGGHSHDSGHGGGDPHLPTLLLGSSGSGGDDDDPHGPVQLSYYD	binds	–
GST-LMP1_(181-386) G378A (domain or fragment, source: E. coli DH5α or BL21 Codon Plus RIPL, purified (glutathione Sepharose 4B)) LIWMYYHGQRHSDEHHHDDSLPHPQQATDDSGHESDSNSNEGRHHLLVSGAGDGPPLCSQNLGAPGGGPDNGPQDPDNTDDNGPQDPDNTDDNGPHDPLPQDPDNTDDNGPQDPDNTDDNGPHDPLPHSPSDSAGNDGGPPQLTEEVENKGGDQGPPLMTDGGGGHSHDSGHGGGDPHLPTLLLGSSGSGGDDDDPHAPVQLSYYD	binds	–
GST-LMP1_(181-386) L382A (domain or fragment, source: E. coli DH5α or BL21 Codon Plus RIPL, purified (glutathione Sepharose 4B)) LIWMYYHGQRHSDEHHHDDSLPHPQQATDDSGHESDSNSNEGRHHLLVSGAGDGPPLCSQNLGAPGGGPDNGPQDPDNTDDNGPQDPDNTDDNGPHDPLPQDPDNTDDNGPQDPDNTDDNGPHDPLPHSPSDSAGNDGGPPQLTEEVENKGGDQGPPLMTDGGGGHSHDSGHGGGDPHLPTLLLGSSGSGGDDDDPHGPVQASYYD	binds	–
GST-LMP1_(181-386) Q381E (domain or fragment, also called LMP1 Q381E; source: E. coli DH5α or BL21 Codon Plus RIPL, purified (glutathione Sepharose 4B)) LIWMYYHGQRHSDEHHHDDSLPHPQQATDDSGHESDSNSNEGRHHLLVSGAGDGPPLCSQNLGAPGGGPDNGPQDPDNTDDNGPQDPDNTDDNGPHDPLPQDPDNTDDNGPQDPDNTDDNGPHDPLPHSPSDSAGNDGGPPQLTEEVENKGGDQGPPLMTDGGGGHSHDSGHGGGDPHLPTLLLGSSGSGGDDDDPHGPVELSYYD	–	14.7
GST-LMP1_(181-386) S383A (domain or fragment, source: E. coli DH5α or BL21 Codon Plus RIPL, purified (glutathione Sepharose 4B)) LIWMYYHGQRHSDEHHHDDSLPHPQQATDDSGHESDSNSNEGRHHLLVSGAGDGPPLCSQNLGAPGGGPDNGPQDPDNTDDNGPQDPDNTDDNGPHDPLPQDPDNTDDNGPQDPDNTDDNGPHDPLPHSPSDSAGNDGGPPQLTEEVENKGGDQGPPLMTDGGGGHSHDSGHGGGDPHLPTLLLGSSGSGGDDDDPHGPVQLAYYD	binds	–
GST-LMP1_(181-386) Y384F (domain or fragment, also called LMP1 Y384F; source: E. coli DH5α or BL21 Codon Plus RIPL, purified (glutathione Sepharose 4B)) LIWMYYHGQRHSDEHHHDDSLPHPQQATDDSGHESDSNSNEGRHHLLVSGAGDGPPLCSQNLGAPGGGPDNGPQDPDNTDDNGPQDPDNTDDNGPHDPLPQDPDNTDDNGPQDPDNTDDNGPHDPLPHSPSDSAGNDGGPPQLTEEVENKGGDQGPPLMTDGGGGHSHDSGHGGGDPHLPTLLLGSSGSGGDDDDPHGPVQLSFYD	binds	–
GST-LMP1_(181-386) Y385A (domain or fragment, also called mutation of Y385 (alanine scan); source: E. coli DH5α or BL21 Codon Plus RIPL, purified (glutathione Sepharose 4B)) LIWMYYHGQRHSDEHHHDDSLPHPQQATDDSGHESDSNSNEGRHHLLVSGAGDGPPLCSQNLGAPGGGPDNGPQDPDNTDDNGPQDPDNTDDNGPHDPLPQDPDNTDDNGPQDPDNTDDNGPHDPLPHSPSDSAGNDGGPPQLTEEVENKGGDQGPPLMTDGGGGHSHDSGHGGGDPHLPTLLLGSSGSGGDDDDPHGPVQLSYAD	binds	–
GGGPYAQGEDARMLSLVSKTEIEEDSFRQMPTEDEYMDRPSQ (domain or fragment, also called TRANCE receptor; source: E. coli DH5α or BL21 Codon Plus RIPL, purified (glutathione Sepharose 4B)) [GST-RANK_(314-355)]	–	7.7
